Assay results as given in the supplement of paper PMC7125110.
± gives the standard error. This sample holds only a part of the variants without activity.

B1: glmS ribozyme (parent)
chain: AUAAAAGCGCCAGAACUACAGAAAUGUAGUUGACGAGGAGGAGGUUUAUCGAAUUUUCGGCGGAUGCCUCCAAA

Columns and labels:
Conditions in all cases: with glucosamine-6-phosphate
glucosamine-6-phosphate [1] = variants of: B1; assay: self-cleavage kobs at 40 uM GlcN6P; higher = faster cleavage; RNA array
Summary of the method: (§1)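 Glucosamine-6-phosphate, from 40 μM to 10 mM in HEPES/KCl/Mg(OAc)2 buffer, was flowed over sequenced MiSeq chips carrying barcoded ribozyme variants transcribed in situ by E. coli RNA polymerase. A hybridised Cy3 probe tracked the variants at 37 °C as tiles were imaged over ~14 h. kobs, kcat and KM were obtained by fitting normalised per-tile medians to exponential decays and then applying weighted Michaelis–Menten fits across concentrations.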

glucosamine-6-phosphate [2] = variants of: B1; assay: self-cleavage kobs at 160 uM GlcN6P; higher = faster cleavage; RNA array
Summary of the method: as §1

glucosamine-6-phosphate [3] = variants of: B1; assay: self-cleavage kobs at 640 uM GlcN6P; higher = faster cleavage; RNA array
Summary of the method: as §1

glucosamine-6-phosphate [4] = variants of: B1; assay: self-cleavage kobs at 2500 uM GlcN6P; higher = faster cleavage; RNA array
Summary of the method: as §1

glucosamine-6-phosphate [5] = variants of: B1; assay: self-cleavage kobs at 10000 uM GlcN6P; higher = faster cleavage; RNA array
Summary of the method: as §1

| Variant | self-cleavage kobs at 40 uM GlcN6P (glucosamine-6-phosphate [1]) [s⁻¹] | self-cleavage kobs at 160 uM GlcN6P (glucosamine-6-phosphate [2]) [s⁻¹] | self-cleavage kobs at 640 uM GlcN6P (glucosamine-6-phosphate [3]) [s⁻¹] | self-cleavage kobs at 2500 uM GlcN6P (glucosamine-6-phosphate [4]) [s⁻¹] | self-cleavage kobs at 10000 uM GlcN6P (glucosamine-6-phosphate [5]) [s⁻¹] |
| --- | --- | --- | --- | --- | --- |
| C10G U46G | < 1e-05 | < 1e-05 | < 1e-05 | < 1e-05 |  |
| C10A G32C | < 1e-05 |  | < 1e-05 | < 1e-05 |  |
| C10U G59C C68A | < 1e-05 |  |  |  | < 1e-05 |
| G9C G51C | < 1e-05 | < 1e-05 | < 1e-05 | < 1e-05 | < 1e-05 |
| C10A A36G G40C U47G | < 1e-05 |  |  |  |  |
| C11G U57G | < 1e-05 | < 1e-05 |  | < 1e-05 | < 1e-05 |
| C10A G40U | < 1e-05 | < 1e-05 | < 1e-05 |  | < 1e-05 |
| C11G A15C | < 1e-05 | < 1e-05 | < 1e-05 | < 1e-05 |  |
| C10G A12G G59U C61G | < 1e-05 |  |  |  |  |
| C10A U46G C68G | 0.000169 ± 4.8e-05 |  |  |  | 6.66e-05 ± 2.2e-05 |
| C10G U65G | < 1e-05 | < 1e-05 | < 1e-05 | < 1e-05 | < 1e-05 |
| C10G U65A | < 1e-05 |  | < 1e-05 |  | < 1e-05 |
| C11U C34A | < 1e-05 |  | < 1e-05 |  |  |
| C11A A33G G43U G44A U54C | < 1e-05 |  | < 1e-05 |  | < 1e-05 |
| C10U C58G | < 1e-05 | < 1e-05 |  | < 1e-05 | < 1e-05 |
| C10U G41U | < 1e-05 | < 1e-05 | < 1e-05 | < 1e-05 | < 1e-05 |
| C10U U45G | < 1e-05 | < 1e-05 | < 1e-05 |  | < 1e-05 |
| C11A U49G C67G | 4.47e-05 ± 1.8e-05 |  |  |  |  |
| G9U G29C A33U A64U | < 1e-05 |  | < 1e-05 | < 1e-05 | < 1e-05 |
| C10A G43A | < 1e-05 |  |  |  |  |

| Variant | self-cleavage kobs at 40 uM GlcN6P (glucosamine-6-phosphate [1]) [s⁻¹] | self-cleavage kobs at 160 uM GlcN6P (glucosamine-6-phosphate [2]) [s⁻¹] | self-cleavage kobs at 640 uM GlcN6P (glucosamine-6-phosphate [3]) [s⁻¹] | self-cleavage kobs at 2500 uM GlcN6P (glucosamine-6-phosphate [4]) [s⁻¹] | self-cleavage kobs at 10000 uM GlcN6P (glucosamine-6-phosphate [5]) [s⁻¹] |
| --- | --- | --- | --- | --- | --- |
| C10A G43U | < 1e-05 | < 1e-05 |  |  | < 1e-05 |
| C10A G38U | < 1e-05 | < 1e-05 | < 1e-05 |  |  |
| C11A U46G A52C | < 1e-05 |  |  |  | < 1e-05 |
| C10G U31C | < 1e-05 | < 1e-05 |  |  | < 1e-05 |
| C10U U55G | < 1e-05 | < 1e-05 |  |  | 2.49e-05 ± 9.6e-06 |
| C10U C61U | < 1e-05 |  | < 1e-05 |  | < 1e-05 |
| G9U A33G | < 1e-05 | < 1e-05 | < 1e-05 | < 1e-05 |  |
| C11G G43U A48U C61G A64G | < 1e-05 |  | < 1e-05 | < 1e-05 | < 1e-05 |
| G9U G59U | < 1e-05 | < 1e-05 |  |  | < 1e-05 |
| G9U G41A | < 1e-05 | < 1e-05 | < 1e-05 | < 1e-05 | < 1e-05 |
| G9U G41U | < 1e-05 | < 1e-05 | < 1e-05 | < 1e-05 | < 1e-05 |
| C10U U54A U57C | < 1e-05 |  |  |  |  |
| C11U A33G U69A | < 1e-05 |  |  |  | < 1e-05 |
| C10U A15U G43A A52G | < 1e-05 |  |  |  | < 1e-05 |
| C11U A36G G38C U69C | < 1e-05 |  |  |  |  |
| C11A A12C G38U U69A | 0.000405 ± 0.00012 |  |  |  | 4.3e-05 ± 2e-05 |
| C10A G43U U45A | < 1e-05 |  | < 1e-05 | < 1e-05 |  |
| G9U U49G | < 1e-05 | < 1e-05 | < 1e-05 |  | < 1e-05 |
| C10A G60A | < 1e-05 | < 1e-05 | < 1e-05 | < 1e-05 |  |
| C10U A42U | < 1e-05 | < 1e-05 | < 1e-05 | < 1e-05 | < 1e-05 |
